The values below come from PMC2965066 (Science (New York, N.Y.), 2010).

For test [1], the target named is T1, YU2 gp120 (HIV-1 (strain YU2), UniProt P35961). The experiment in a line: SPR. (In general: In SPR one partner is held on a chip, and binding of the other changes the refractive index at the surface.)
For test [2], the target named is T1, YU2 gp120. The experiment in a line: ELISA. On the technique in general: In an ELISA, binding on a coated surface is turned into a signal by an enzyme label.

B1: VRC03 (antibody, V domains shown)
VH: QVQLVQSGAVIKTPGSSVKISCRASGYNFRDYSIHWVRLIPDKGFEWIGWIKPLWGAVSYARQLQGRVSMTRQLSQDPDDPDWGVAYMEFSGLTPADTAEYFCVRRGSCDYCGDFPWQYWGQGTVVVVSS
VL: EIVLTQSPGILSLSPGETATLFCKASQGGNAMTWYQKRRGQVPRLLIYDTSRRASGVPDRFVGSGSGTDFFLTINKLDREDFAVYYCQQFEFFGLGSELEVH
Consider B1, for which the Kd in test [1] stood at 73.1 nM. Besides, in test [2], the binding result is “binds”.

For orientation: Kd means the concentration at which binding is half-saturated.
